This note sets out measurements from paper PMC4508888.

Some targets named below: EGFP-Myo1b motor (rat); EGFP-Myo1b-Tail (rat); EGFP-Myo1b (rat) (UniProt Q05096); Flag-EphB2-KD (UniProt P54763).
Test in all cases: co-IP

“Flag-EphB2 (from UniProt P54763 19-986) (receptor)”: the percent of Flag-EphB2 pulled down against EGFP-Myo1b in the experiment with EGFP-Myo1b motor (rat) is 50%. The molecule further had a fold of Flag-EphB2 pulled down against EGFP-Myo1b with EGFP-Myo1b-Tail (rat) of over 2 fold. The molecule further showed a percent of Flag-EphB2 co-precipitated with EGFP-Myo1b after genistein treatment in the experiment with EGFP-Myo1b (rat) of 29%.

B1: EGFP-Myo1b (natural protein)
chain: MAKKEVKSSLLDNMIGVGDTVLLEPLNEETFIDNLKKRFDHNEIYTYIGSVVISVNPYRSLPIYSPEKVEDYRNRNFYELSPHIFALSDEAYRSLRDQDKDQCILITGESGAGKTEASKLVMSYVAAVCGKGAEVNQVKEQLLQSTPVLEAFGNAKTVRNDNSSRFGKYMDIEFDFKGDPLGGVISNYLLEKSRVVKQPRGERNFHVFYQLLSGASEELLHKLKLERDFSRYNYLSLDSAKVNGVDDAANFRTVRNAMQIVGFSDPEAESVLEVVAAVLKLGNIEFKPESRMNGLDESKIKDKNELKEICELTSIDQVVLERAFSFRTVEAKQEKVSTTLNVAQAYYARDALAKNLYSRLFSWLVNRINESIKAQTKVRKKVMGVLDIYGFEIFEDNSFEQFIINYCNEKLQQIFIELTLKEEQEEYIREDIEWTHIDYFNNAIICDLIENNTNGILAMLDEECLRPGTVTDETFLEKLNQVCATHQHFESRMSKCSRFLNDTTLPHSCFRIQHYAGKVLYQVEGFVDKNNDLLYRDLSQAMWKAGHALIKSLFPEGNPAKVNLKRPPTAGSQFKASVATLMKNLQTKNPNYIRCIKPNDKKAAHIFSESLVCHQIRYLGLLENVRVRRAGYAFRQAYEPCLERYKMLCKQTWPHWKGPARSGVEVLFNELEIPVEEYSFGRSKIFIRNPRTLFQLEDLRKQRLEDLATLIQKIYRGWKCRTHFLLMKRSQVVIAAWYRRYAQQKRYQQIKSSALVIQSYIRGWKARKILRELKHQKRCKEAATTIAAYWHGTQARKERRRLKDEARNKHAIAVIWAFWLGSKARRELKRLKEEARRKHAVAVIWAYWLGLKVRREYRKFFRANAGKKIYEFTLQRIVQKYLLEMKNKMPSLSPIDKNWPSRPYLFLDSTHKELKRIFHLWRCKKYRDQFTDQQKLIYEEKLEASELFKDKKALYPSSVGQPFQGAYLEINKNPKYKKLKDAIEEKIIIAEVVNKINRANGKSTSRIFLLTNNNLLLADQKSGQIKSEVPLVDVTKVSMSSQNDGFFAVHLKEGSEAASKGDFLFSSDHLIEMATKLYRTTLSQTKQKLNIEISDEFLVQFRQDKVCVKFIQGNQKNGSVPTCKRKNNRLLEVAVP
In the experiment with Flag-EphB2-KD, B1 had a percent of EGFP-Myo1b co-precipitated against Flag-EphB2 of 16%.
